Results reported in patent US20160264649A1 (published 2016).

Experiments:
Experiment in all cases: cell-based or functional assay
[1] = target: aMLV Env (aMLV)
[2] = target: T1, HIV-1 SF162 Env (HIV-1 strain SF162, UniProt P19550 32-847)
[3] = target: HIV-1 94UG103 Env (HIV-1 strain 94UG103)
[4] = target: HIV-1 92BR020 Env (HIV-1 strain 92BR020)
[5] = target: HIV-1 IAVI_C22 Env (HIV-1 strain IAVI C22)
[6] = target: HIV-1 93IN905 Env (HIV-1 strain 93IN905)
[7] = target: HIV-1 NL43 Env (HIV-1 strain NL43)
[8] = target: HIV-1 92TH021 Env (HIV-1 strain 92TH021)
[9] = target: T1, HIV-1 SF162 Env; remark: listed apart in the source
[10] = target: HIV-1 JR-CSF Env (gp160) (HIV-1 isolate JR-CSF, UniProt P20871 32-848)
Chain of HIV-1 JR-CSF Env (gp160) (P20871 32-848): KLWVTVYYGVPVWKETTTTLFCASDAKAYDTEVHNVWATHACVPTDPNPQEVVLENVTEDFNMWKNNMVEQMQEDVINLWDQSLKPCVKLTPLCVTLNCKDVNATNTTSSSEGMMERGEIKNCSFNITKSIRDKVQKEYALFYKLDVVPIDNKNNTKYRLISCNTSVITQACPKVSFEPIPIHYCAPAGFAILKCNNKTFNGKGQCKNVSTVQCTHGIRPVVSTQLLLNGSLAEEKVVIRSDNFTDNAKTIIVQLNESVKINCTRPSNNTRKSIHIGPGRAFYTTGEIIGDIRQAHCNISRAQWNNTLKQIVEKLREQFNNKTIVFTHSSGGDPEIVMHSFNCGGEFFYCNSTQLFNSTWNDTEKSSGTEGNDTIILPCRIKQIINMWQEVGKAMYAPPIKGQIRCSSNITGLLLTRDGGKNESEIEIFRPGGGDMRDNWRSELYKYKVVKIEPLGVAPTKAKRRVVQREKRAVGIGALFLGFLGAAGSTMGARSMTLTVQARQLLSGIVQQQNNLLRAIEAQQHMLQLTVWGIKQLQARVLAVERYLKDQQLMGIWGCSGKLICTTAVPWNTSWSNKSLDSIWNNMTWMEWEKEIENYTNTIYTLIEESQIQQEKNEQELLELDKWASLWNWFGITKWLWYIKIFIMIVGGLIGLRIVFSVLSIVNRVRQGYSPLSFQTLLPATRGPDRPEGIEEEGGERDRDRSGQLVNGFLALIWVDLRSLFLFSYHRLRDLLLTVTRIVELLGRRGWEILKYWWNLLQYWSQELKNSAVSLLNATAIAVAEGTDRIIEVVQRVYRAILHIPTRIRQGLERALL

| Binder | IC50 neutralization, 1 hour virus/Ab incubation [1] [µg/mL] | IC50 neutralization, 18 hour virus/Ab incubation [1] [µg/mL] | IC50 neutralization, 1 hour virus/Ab incubation [2] [µg/mL] | IC50 neutralization, 18 hour virus/Ab incubation [2] [µg/mL] | IC50 neutralization, 1 hour virus/Ab incubation [3] [µg/mL] | IC50 neutralization, 18 hour virus/Ab incubation [3] [µg/mL] | IC50 neutralization, 1 hour virus/Ab incubation [4] [µg/mL] | IC50 neutralization, 18 hour virus/Ab incubation [4] [µg/mL] | IC50 neutralization, 1 hour virus/Ab incubation [5] [µg/mL] | IC50 neutralization, 18 hour virus/Ab incubation [5] [µg/mL] | IC50 neutralization, 1 hour virus/Ab incubation [6] [µg/mL] | IC50 neutralization, 18 hour virus/Ab incubation [6] [µg/mL] | IC50 neutralization, 1 hour virus/Ab incubation [7] [µg/mL] | IC50 neutralization, 18 hour virus/Ab incubation [7] [µg/mL] | IC50 neutralization, 1 hour virus/Ab incubation [8] [µg/mL] | IC50 neutralization, 18 hour virus/Ab incubation [8] [µg/mL] | Neutralization Index SF162 (clonal H and L transfectant) [9] | IC50 neutralization, 1 hour virus/Ab incubation [10] [µg/mL] | IC50 neutralization, 18 hour virus/Ab incubation [10] [µg/mL] |
| --- | --- | --- | --- | --- | --- | --- | --- | --- | --- | --- | --- | --- | --- | --- | --- | --- | --- | --- | --- |
| 1496_C09 (PG9) (TCN-109) (antibody, V domains shown) VH: QRLVESGGGVVQPGSSLRLSCAASGFDFSRQGMHWVRQAPGQGLEWVAFIKYDGSEKYHADSVWGRLSISRDNSKDTLYLQMNSLRVEDTATYFCVREAGGPDYRNGYNYYDFYDGYYNYHYMDVWGKGTTVTVSS VL: QSALTQPASVSGSPGQSITISCNGTSNDVGGYESVSWYQQHPGKAPKVVIYDVSKRPSGVSNRFSGSKSGNTASLTISGLQAEDEGDYYCKSLTSTRRRVFGTGTKLTVLG | > 50 | > 50 | > 50 | > 50 | 0.334 | 0.0942 | > 50 | > 50 | 24.9 | 2.11 | 0.144 | 0.0619 | 0.294 | 38 | 0.0612 | 0.0571 |  |  |  |
| 1496 C09 γ3 017 + 1496 C09 λ3 024 (antibody, V domains shown) VH: QRLVESGGGVVQPGSSLRLSCAASGFDFSRQGMHWVRQAPGQGLEWVAFIKYDGSEKYHADSVWGRLSISRDNSKDTLYLQMNSLRVEDTATYFCVREAGGPDYRNGYNYYDFYDGYYNYHYMDVWGKGTTVTVSS VL: QSALTQPASVSGSPGQTITISCNGTSSDVGGFDSVSWYQQSPGKAPKVMVFDVSHRPSGISNRFSGSKSGNTASLTISGLHIEDEGDYFCSSLTDRSHRIFGGGTKVTVLG |  |  |  |  |  |  |  |  |  |  |  |  |  |  |  |  | 0.94 |  |  |
| 1443_C16 (PG16) (TCN-116) (antibody, V domains shown) VH: QEQLVESGGGVVQPGGSLRLSCLASGFTFHKYGMHWVRQAPGKGLEWVALISDDGMRKYHSDSMWGRVTISRDNSKNTLYLQFSSLKVEDTAMFFCAREAGGPIWHDDVKYYDFNDGYYNYHYMDVWGKGTTVTVSS VL: QSALTQPASVSGSPGQTITISCNGTSSDVGGFDSVSWYQQSPGKAPKVMVFDVSHRPSGISNRFSGSKSGNTASLTISGLHIEDEGDYFCSSLTDRSHRIFGGGTKVTVLG | > 50 | > 50 | > 50 | > 50 | 0.0211 | 0.0085 | > 50 | > 50 | 0.114 | 0.106 | 0.33 | 0.255 | < 0.0025 | 4.99 | 0.136 | 0.0435 | 0.67 | < 0.0025 | < 0.0025 |
| 1495_C14 (PGC14) (antibody, human IgG1, lambda, V domains shown) VH: DGHLVQSGVEVKKTGATVKISCKVSGYSFIDYYLHWVQRAPGKGLEWVGLIDPENGEARYAEKFQGRVTIIADTSIDTGYMEMRSLKSEDTAVYFCAAGAVGADSGSWFDPWGQGTLVTVSS VL: SYELTQPPSVSVSPGQTASITCSGSKLGDKYVSWYQLRPGQSPILVMYENDRRPSGIPERFSGSNSGDTATLTISGTQALDEADFYCQAWETTTTTFVFFGGGTQLTVLG | > 50 | > 50 | 0.0069 | < 0.0025 | > 50 | > 50 | 1.17 | 0.244 | > 50 | 13.4 | > 50 | 0.146 | 0.35 | 0.15 | > 50 | > 50 |  | > 50 | > 50 |
| 1456_P20 (PG20) (antibody, human IgG1, kappa, V domains shown) VH: QVRLVQSGPEVKKPGSSVTVSCQASGGTFSSYAFTWVRQAPGQGLEWLGMVTPIFGEAKYSQRFEGRVTITADESTSTTSIELRGLTSEDTAIYYCARDRRAVPIATDNWLDPWGQGTLVTVSS VL: DIQLTQSPSSLSASVGDRVSITCRASQTINNYLNWYQQTPGKAPKLLIYGASNLQNGVPSRFSGSGSGTDFTLTISSLQPEDFATYYCQQSFSTPRTFGQGTRLDIKR | > 50 | > 50 | 0.195 | 0.0661 | > 50 | > 50 | > 50 | > 50 | > 50 | > 50 | > 50 | 3.84 | 0.2 | 0.05 | > 50 | > 50 |  | > 50 | > 50 |
| 1460_G14 (PGG14) (antibody, human IgG1, kappa, V domains shown) VH: QVLLVQSGTEVKKPGSSVKVSCQASGGAFSSYAFSWVRQAPGQGLEWMGMITPVFGETKYAPRFQGRLTLTAEESLSTTYMELRSLTSDDTAFYYCTRDRRVVPMATDNWLDPWGQGTLVTVSS VL: DIQLTQSPSSLSASVGDRVTVTCRASQTIHTYLNWYQQIPGKAPKLLIYGASTLQSGVPSRFSGSGSGTDFTLTINSLQPEDFATYYCQQSYSTPRTFGQGTRLDIKR | > 50 | > 50 |  |  | > 50 | > 50 | > 50 | > 50 | > 50 | > 50 | > 50 | 3.17 | 0.17 | 0.05 | > 50 | > 50 | 39.4 |  |  |
